# Results published in patent US20090099029.
# T1: Bovine, dephosphorylated, Myelin Basic Protein (MBP), P02687
# T1 chain: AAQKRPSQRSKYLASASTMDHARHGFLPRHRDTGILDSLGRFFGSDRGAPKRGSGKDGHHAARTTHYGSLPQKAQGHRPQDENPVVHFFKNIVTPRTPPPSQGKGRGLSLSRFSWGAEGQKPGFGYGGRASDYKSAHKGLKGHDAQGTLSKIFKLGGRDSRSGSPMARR
# Target: T1, Bovine, dephosphorylated, Myelin Basic …
row,Protein,MBP Kinase Activity
1,IGF1R (protein) RKRNNSRLGNGVLYASVNPEYFSAADVYVPDEWEVAREKITMSRELGQGSFGMVYEGVAKGVVKDEPETRVAIKTVNEAASMRERIEFLNEASVMKEFNCHHVVRLLGVVSQGQPTLVIMELMTRGDLKSYLRSLRPEMENNPVLAPPSLSKMIQMAGEIADGMAYLNANKFVHRDLAARNCMVAEDFTVKIGDFGMTRDIYETDYYRKGGKGLLPVRWMSPESLKDGVFTTYSDVWSFGVVLWEIATLAEQPYQGLSNEQVLRFVMEGGLLDKPDNCPDMLFELMRMCWQYNPKMRPSFLEIISSIKEEMEPGFREVSFYYSEENKLPEPEELDLEPENMESVPLDPSASSSSLPLPDRHSGHKAENGPGPGVLVLRASFDERQPYAHMNGGRKNERALPLPQSSTC,Strong
2,PDGFRA (protein) KQKPRYEIRWRVIESISPDGHEYIYVDPMQLPYDSRWEFPRDGLVLGRVLGSGAFGKVVEGTAYGLSRSQPVMKVAVKMLKPTARSSEKQALMSELKIMTHLGPHLNIVNLLGACTKSGPIYIITEYCFYGDLVNYLHKNRDSFLSHHPEKPKKELDIFGLNPADESTRSYVILSFENNGDYMDMKQADTTQYVPMLERKEVSKYSDIQRSLYDRPASYKKKSMLDSEVKNLLSDDNSEGLTLLDLLSFTYQVARGMEFLASKNCVHRDLAARNVLLAQGKIVKICDFGLARDIMHDSNYVSKGSTFLPVKWMAPESIFDNLYTTLSDVWSYGILLWEIFSLGGTPYPGMMVDSTFYNKIKSGYRMAKPDHATSEVYEIMVKCWNSEPEKRPSFYHLSEIVENLLPGQYKKSYEKIHLDFLKSDHPAVARMRVDSDNAYIGVTYKNEEDKLKDWEGGLDEQRLSADSGYIIPLPDIDPVPEEEDLGKRNRHSSQTSEESAIETGSSSSTFIKREDETIEDIDMMDDIGIDSSDLVEDSFL,Strong
3,"PDGFRA, T674I (protein) KQKPRYEIRWRVIESISPDGHEYIYVDPMQLPYDSRWEFPRDGLVLGRVLGSGAFGKVVEGTAYGLSRSQPVMKVAVKMLKPTARSSEKQALMSELKIMTHLGPHLNIVNLLGACTKSGPIYIIIEYCFYGDLVNYLHKNRDSFLSHHPEKPKKELDIFGLNPADESTRSYVILSFENNGDYMDMKQADTTQYVPMLERKEVSKYSDIQRSLYDRPASYKKKSMLDSEVKNLLSDDNSEGLTLLDLLSFTYQVARGMEFLASKNCVHRDLAARNVLLAQGKIVKICDFGLARDIMHDSNYVSKGSTFLPVKWMAPESIFDNLYTTLSDVWSYGILLWEIFSLGGTPYPGMMVDSTFYNKIKSGYRMAKPDHATSEVYEIMVKCWNSEPEKRPSFYHLSEIVENLLPGQYKKSYEKIHLDFLKSDHPAVARMRVDSDNAYIGVTYKNEEDKLKDWEGGLDEQRLSADSGYIIPLPDIDPVPEEEDLGKRNRHSSQTSEESAIETGSSSSTFIKREDETIEDIDMMDDIGIDSSDLVEDSFL",Negative
4,MET (protein) KKRKQIKDLGSELVRYDARVHTPHLDRLVSARSVSPTTEMVSNESVDYRATFPEDQFPNSSQNGSCRQVQYPLTDMSPILTSGDSDISSPLLQNTVHIDLSALNPELVQAVQHVVIGPSSLIVHFNEVIGRGHFGCVYHGTLLDNDGKKIHCAVKSLNRITDIGEVSQFLTEGIIMKDFSHPNVLSLLGICLRSEGSPLVVLPYMKHGDLRNFIRNETHNPTVKDLIGFGLQVAKGMKYLASKKFVHRDLAARNCMLDEKFTVKVADFGLARDMYDKEYYSVHNKTGAKLPVKWMALESLQTQKFTTKSDVWSFGVLLWELMTRGAPPYPDVNTFDITVYLLQGRRLLQPEYCPDPLYEVMLKCWHPKAEMRPSFSELVSRISAIFSTFIGEHYVHVNATYVNVKCVAPYPSLLSSEDNADDEVDTRPASFWETS,Strong
5,PDGFRB (protein) MLWQKKPRYEIRWKVIESVSSDGHEYIYVDPMQLPYDSTWELPRDQLVLGRTLGSGAFGQVVEATAHGLSHSQATMKVAVKMLKSTARSSEKQALMSELKIMSHLGPHLNVVNLLGACTKGGPIYIITEYCRYGDLVDYLHRNKHTFLQHHSDKRRPPSAELYSNALPVGLPLPSHVSLTGESDGGYMDMSKDESVDYVPMLDMKGDVKYADIESSNYMAPYDNYVPSAPERTCRATLINESPVLSYMDLVGFSYQVANGMEFLASKNCVHRDLAARNVLICEGKLVKICDFGLARDIMRDSNYISKGSTFLPLKWMAPESIFNSLYTTLSDVWSFGILLWEIFTLGGTPYPELPMNEQFYNAIKRGYRMAQPAHASDEIYEIMQKCWEEKFEIRPPFSQLVLLLERLLGEGYKKKYQQVDEEFLRSDHPAILRSQARLPGFHGLRSPLDTSSVLYTAVQPNEGDNDYIIPLPDPKPEVADEGPLEGSPSLASSTLNEVNTSSTISCDSPLEPQDEPEPEPQLELQVEPEPELEQLPDSGCPAPRAEAEDSFL,Strong
6,FLT3 (protein) HKYKKQFRYESQLQMVQVTGSSDNEYFYVDFREYEYDLKWEFPRENLEFGKVLGSGAFGKVMNATAYGISKTGVSIQVAVKMLKEKADSSEREALMSELKMMTQLGSHENIVNLLGACTLSGPIYLIFEYCCYGDLLNYLRSKREKFHRTWTEIFKEHNFSFYPTFQSHPNSSMPGSREVQIHPDSDQISGLHGNSFHSEDEIEYENQKRLEEEEDLNVLTFEDLLCFAYQVAKGMEFLEFKSCVHRDLAARNVLVTHGKVVKICDFGLARDIMSDSNYVVRGNARLPVKWMAPESLFEGIYTIKSDVWSYGILLWEIFSLGVNPYPGIPVDANFYKLIQNGFKMDQPFYATEEIYIIMQSCWAFDSRKRPSFPNLTSFLGCQLADAEEAMYQNVDGRVSECPHTYQNRRPFSREMDLGLLSPQAQVEDS,Strong
7,MERTK (protein) KRVQETKFGNAFTEEDSELVVNYIAKKSFCRRAIELTLHSLGVSEELQNKLEDVVIDRNLLILGKILGEGEFGSVMEGNLKQEDGTSLKVAVKTMKLDNSSQREIEEFLSEAACMKDFSHPNVIRLLGVCIEMSSQGIPKPMVILPFMKYGDLHTYLLYSRLETGPKHIPLQTLLKFMVDIALGMEYLSNRNFLHRDLAARNCMLRDDMTVCVADFGLSKKIYSGDYYRQGRIAKMPVKWIAIESLADRVYTSKSDVWAFGVTMWEIATRGMTPYPGVQNHEMYDYLLHGHRLKQPEDCLDELYEIMYSCWRTDPLDRPTFSVLRLQLEKLLESLPDVRNQADVIYVNTQLLESSEGLAQGSTLAPLDLNIDPDSIIASCTPRAAISVVTAEVHDSKPHEGRYILNGGSEEWEDLTSAPSAAVTAEKNSVLPGERLVRNGVSWSHSSMLPLGSSLPDELLFADDSSEGSEVLM,Strong
8,MUSK (protein) CCRRRKQWKNKKRESAAVTLTTLPSELLLDRLHPNPMYQRMPLLLNPKLLSLEYPRNNIEYVRDIGEGAFGRVFQARAPGLLPYEPFTMVAVKMLKEEASADMQADFQREAALMAEFDNPNIVKLLGVCAVGKPMCLLFEYMAYGDLNEFLRSMSPHTVCSLSHSDLSMRAQVSSPGPPPLSCAEQLCIARQVAAGMAYLSERKFVHRDLATRNCLVGENMVVKIADFGLSRNIYSADYYKANENDAIPIRWMPPESIFYNRYTTESDVWAYGVVLWEIFSYGLQPYYGMAHEEVIYYVRDGNILSCPENCPVELYNLMRLCWSKLPADRPSFTSIHRILERMCERAEGTVSV,Negative
9,CSF1R (protein) YKYKQKPKYQVRWKIIESYEGNSYTFIDPTQLPYNEKWEFPRNNLQFGKTLGAGAFGKVVEATAFGLGKEDAVLKVAVKMLKSTAHADEKEALMSELKIMSHLGQHENIVNLLGACTHGGPVLVITEYCCYGDLLNFLRRKAEAMLGPSLSPGQDPEGGVDYKNIHLEKKYVRRDSGFSSQGVDTYVEMRPVSTSSNDSFSEQDLDKEDGRPLELRDLLHFSSQVAQGMAFLASKNCIHRDVAARNVLLTNGHVAKIGDFGLARDIMNDSNYIVKGNARLPVKWMAPESIFDCVYTVQSDVWSYGILLWEIFSLGLNPYPGILVNSKFYKLVKDGYQMAQPAFAPKNIYSIMQACWALEPTHRPTFQQICSFLQEQAQEDRRERDYTNLPSSSRSGGSGSSSSELEEESSSEHLTCCEQGDIAQPLLQPNNYQFC,Strong
10,KIT (protein) TYKYLQKPMYEVQWKVVEEINGNNYVYIDPTQLPYDHKWEFPRNRLSFGKTLGAGAFGKVVEATAYGLIKSDAAMTVAVKMLKPSAHLTEREALMSELKVLSYLGNHMNIVNLLGACTIGGPTLVITEYCCYGDLLNFLRRKRDSFICSKQEDHAEAALYKNLLHSKESSCSDSTNEYMDMKPGVSYVVPTKADKRRSVRIGSYIERDVTPAIMEDDELALDLEDLLSFSYQVAKGMAFLASKNCIHRDLAARNILLTHGRITKICDFGLARDIKNDSNYVVKGNARLPVKWMAPESIFNCVYTFESDVWSYGIFLWELFSLGSSPYPGMPVDSKFYKMIKEGFRMLSPEHAPAEMYDIMKTCWDADPLKRPTFKQIVQLIEKQISESTNHIYSNLANCSPNRQKPVVDHSVRINSVGSTASSSQPLLVHDDV,Negative
11,INSRR (protein) YGKKRNRTLYASVNPEYFSASDMYVPDEWEVPREQISIIRELGQGSFGMVYEGLARGLEAGEESTPVALKTVNELASPRECIEFLKEASVMKAFKCHHVVRLLGVVSQGQPTLVIMELMTRGDLKSHLRSLRPEAENNPGLPQPALGEMIQMAGEIADGMAYLAANKFVHRDLAARNCMVSQDFTVKIGDFGMTRDVYETDYYRKGGKGLLPVRWMAPESLKDGIFTTHSDVWSFGVVLWEIVTLAEQPYQGLSNEQVLKFVMDGGVLEELEGCPLQLQELMSRCWQPNPRLRPSFTHILDSIQEELRPSFRLLSFYYSPECRGARGSLPTTDAEPDSSPTPRDCSPQNGGPGH,Negative
12,RET (protein) HCYHKFAHKPPISSAEMTFRRPAQAFPVSYSSSGARRPSLDSMENQVSVDAFKILEDPKWEFPRKNLVLGKTLGEGEFGKVVKATAFHLKGRAGYTTVAVKMLKENASPSELRDLLSEFNVLKQVNHPHVIKLYGACSQDGPLLLIVEYAKYGSLRGFLRESRKVGPGYLGSGGSRNSSSLDHPDERALTMGDLISFAWQISQGMQYLAEMKLVHRDLAARNILVAEGRKMKISDFGLSRDVYEEDSYVKRSQGRIPVKWMAIESLFDHIYTTQSDVWSFGVLLWEIVTLGGNPYPGIPPERLFNLLKTGHRMERPDNCSEEMYRLMLQCWKQEPDKRPVFADISKDLEKMMVKRRDYLDLAASTPSDSLIYDDGLSEEETPLVDCNNAPLPRALPSTWIENKLYGMSDPNWPGESPVPLTRADGTNTGFPRYPNDSVYANWMLSPSAAKLMDTFDS,Strong
